Measured values as given in the supplement of paper PMC9170038.

Test system: MS2 coat protein
Assay: apparent KD of MS2 coat protein; designed switch direction (-1 OFF switch, 1 ON switch): -1; higher = weaker reporter binding
Procedure, shortened: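 Designed RNA switches sharing common flanks were transcribed on Illumina chips by stalled E. coli RNA polymerase. They were titrated with SNAP-549-labelled MS2 coat protein, from 0.7 or 1.5 nM doubling to 3 µM, in Tris-HCl pH 7.5 buffer with KCl, MgCl2, BSA, DTT, tRNA and Tween-20. Titrations ran without input, with 200 uM small-molecule ligand, or with an oligonucleotide input. The apparent KD of each design is the median over its clusters, after curve-fitting of normalised cluster fluorescence.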

[1] = input ligand: microRNA oligo, concentration not stated
[2] = Eterna round: R95, input ligand: microRNA oligo, concentration not stated
[3] = Eterna round: R95, input ligand: FMN 200 uM
[4] = Eterna round: R95, input ligand: none

Sequence: AAUAUCGUAGGAUAUUAGUGCUCAGACAUGAGGAUCACCCAUGUUUGGUGGGUUGGAGAAUGAGAAGGGCGAUGAA [EX5 #17] (Eterna round: R97, puzzle: Exclusion 5)
- apparent KD of MS2 coat protein (input ligand: FMN 200 uM): 0.376 µM
- apparent KD of MS2 coat protein (input ligand: none): 0.687 µM

Sequence: GAUCCUUCUGUUAGGAUAUGCUUUGGGCUUCCGCAGCAGAAGGAACAUGAGGAUCACCCAUGUCAAAUAAAAUC [salish99_bmex4_r4_501] (Eterna round: R97, puzzle: Brourd's mod of Exclusion 4)
- apparent KD of MS2 coat protein (input ligand: FMN 200 uM): 0.0255 µM
- apparent KD of MS2 coat protein (input ligand: none): 0.0271 µM

Sequence: AGCAGCCAAUCAGGAUAUACUUUCAGGUGAAGCGUCGCGGGCGAUAACAUGAGGAUCACCCAUGUGUAGAAGGGAUGCGCAAAC [Eternabot solution 39] (Eterna round: R96, puzzle: Exclusion NG 2)
- apparent KD of MS2 coat protein (input ligand: FMN 200 uM): 0.0458 µM
- apparent KD of MS2 coat protein [1]: 0.0303 µM
- apparent KD of MS2 coat protein (input ligand: none): 0.0412 µM

Sequence: UUAAUUUUAGGAUAUACAUGAGGAUCACCCAUGUGGCGGGCCAUGAUGGAGCGUACCAGUAGAAGGAAGAACAG [Eternabot (L2) Solution 43] (Eterna round: R97, puzzle: Exclusion 3)
- apparent KD of MS2 coat protein (input ligand: FMN 200 uM): 0.0692 µM
- apparent KD of MS2 coat protein (input ligand: none): 0.0732 µM

Sequence: UCGUUUCGUGUAGGAUAUUGGCCUUCUCUGGGUCGAGAAGGACAUGAGGAUCACCCAUGUAUGUUAUUAUCACGCGUGGCGCAU [Design 83] (Eterna round: R96, puzzle: Exclusion NG 1)
- apparent KD of MS2 coat protein (input ligand: FMN 200 uM): 0.0353 µM
- apparent KD of MS2 coat protein [1]: 0.0158 µM
- apparent KD of MS2 coat protein (input ligand: none): 0.0282 µM

Sequence: GGUGUGCUAGGAUAUGCUUUGGGCUCGCUUUCCUUCGUUUUACUUGAGGAUCACCCAAGUAGAAGGAGCUUGCC [salish99_ex2_r4_037] (Eterna round: R97, puzzle: Exclusion 2)
- apparent KD of MS2 coat protein (input ligand: FMN 200 uM): 0.0133 µM
- apparent KD of MS2 coat protein (input ligand: none): 0.0116 µM

Sequence: GCAGCAUAGUCCAAAUAGGACAUACAUGAGGAUCACCCAUGUCAGGAUAUGGUCUGGAUUACAGGCCAGAAGGGACGUAGCUGC [Eli exng3 - 004] (Eterna round: R96, puzzle: Exclusion NG 3)
- apparent KD of MS2 coat protein (input ligand: FMN 200 uM): 0.0259 µM
- apparent KD of MS2 coat protein [1]: 0.0209 µM
- apparent KD of MS2 coat protein (input ligand: none): 0.0236 µM

Sequence: AGAUCCUGAGUCAGGAUAUAGAGGCGAAAGCCUGGCUAGAAGGGACAUGAGGAUCACCCAUGUGGGUUCGUGCC [Geariat] (puzzle: Brourd's mod of Exclusion 4)
- apparent KD of MS2 coat protein [2]: 0.0196 µM

Sequence: GGCCGAGAACAGCUCCACGCUACCCUCGGCCGCUCAUUUACAUGAGGAUCACCCAUGUUUUUUGCUUGUCUUGUUUC [Xeisrarabi] (puzzle: Sensor v3, turn-off variant 2)
- apparent KD of MS2 coat protein [3]: 0.0221 µM
- apparent KD of MS2 coat protein [2]: 0.0941 µM
- apparent KD of MS2 coat protein [4]: 0.0241 µM

Sequence: ACUUAUAGAGGAUAUACAGAUUAUUACAUGAGGAUCACCCAUGUUCUUCAAUGUAUAUAUGUAGAAGGCUAAGGAU [Mat - Exclusion 5 - JL Mod - D8] (Eterna round: R97, puzzle: Exclusion 5)
- apparent KD of MS2 coat protein (input ligand: FMN 200 uM): 0.192 µM
- apparent KD of MS2 coat protein (input ligand: none): 0.0759 µM

Sequence: UUGUUACAUGAGGAUCACCCAUGUGAGGAUAUGGUUCAGUAAUGUAAUGUAAAGUACUCCAGAAGGCACAUGUU [1st #27] (Eterna round: R97, puzzle: Exclusion 1)
- apparent KD of MS2 coat protein (input ligand: FMN 200 uM): 1.51 µM
- apparent KD of MS2 coat protein (input ligand: none): 0.809 µM

Sequence: AAACAAACGGGAGGAUAUCGACAUAUUCAACUGCGAGAAGGCCCAAAAGACAUGAGGAUCACCCAUGUAAACCGGGUGAGAAAU [Rimabi] (Eterna round: R96, puzzle: Exclusion NG 1)
- apparent KD of MS2 coat protein (input ligand: FMN 200 uM): 0.934 µM
- apparent KD of MS2 coat protein [1]: 0.185 µM
- apparent KD of MS2 coat protein (input ligand: none): 0.215 µM

Sequence: CGGCCGUUUGUAAGGAUAUAACUAGUUGCGACCAGUUAGAAGGUACAUGAGGAUCACCCAUGUCUUCCAGUGGC [Eternabot (L1) Solution 76] (Eterna round: R97, puzzle: Brourd's mod of Exclusion 4)
- apparent KD of MS2 coat protein (input ligand: FMN 200 uM): 0.0162 µM
- apparent KD of MS2 coat protein (input ligand: none): 0.0151 µM

Sequence: CUGGACAGAGGAUAUUGUGCUGCUGACAUGAGGAUCACCCAUGUAUGUUAACUCGGCCGUCGAGAAGGCUGACAGG [BotMod 17 - Jieux - Exclusion 5] (Eterna round: R97, puzzle: Exclusion 5)
- apparent KD of MS2 coat protein (input ligand: FMN 200 uM): 0.0143 µM
- apparent KD of MS2 coat protein (input ligand: none): 0.0192 µM

Sequence: GAUCAGAUAGGAUAUACAGGCCCGUCUUUAUAUUGAUCCCGACAUGAGGAUCACCCAUGUAGAAGGAUCAGAUC [Mod 28 - Jieux - Exclusion 2] (Eterna round: R97, puzzle: Exclusion 2)
- apparent KD of MS2 coat protein (input ligand: FMN 200 uM): 0.0233 µM
- apparent KD of MS2 coat protein (input ligand: none): 0.0175 µM

Sequence: GGUACUAACACGAGAGUGUUAGUACUAUAAGCUUGUGUUACAUGAGGAUCACCCAUGUCCUCAUAGGCUCGUCUUAA [Mat - Sensor v3 - Turn-off var 2 - D81] (puzzle: Sensor v3, turn-off variant 2)
- apparent KD of MS2 coat protein [3]: 0.0824 µM
- apparent KD of MS2 coat protein [2]: 0.061 µM
- apparent KD of MS2 coat protein [4]: 0.0824 µM

Sequence: AAUUUAAUUAACAAGCUUUACAUGAGGAUCACCCAUGUGAUCAUGCUCGUCUUAUAAUUAAUUAAUUAAUUAAUUAA [Stov1/6-A1] (Eterna round: R97, puzzle: Sensor, turn-off variant 1)
- apparent KD of MS2 coat protein (input ligand: FMN 200 uM): 0.0484 µM
- apparent KD of MS2 coat protein (input ligand: none): 0.0592 µM

Sequence: ACAUGAGGAUCACCCAUGUCCGGCUGGUCCGUCUCGGCUGUCGAGGAUAUAGCUCGGUGUCCGCGCUAGAAGGUGGGAGCCGGC [Aenatbe mod 72] (Eterna round: R96, puzzle: Exclusion NG 3)
- apparent KD of MS2 coat protein (input ligand: FMN 200 uM): 0.212 µM
- apparent KD of MS2 coat protein [1]: 0.134 µM
- apparent KD of MS2 coat protein (input ligand: none): 0.217 µM

Sequence: GUGCAAUGAGGAUAUACGUAGGUGAACAUCUGUGUGCUCCUACAUGAGGAUCACCCAUGUAGAAGGCAUGUCAC [LRO-Excl2-17] (puzzle: Exclusion 2)
- apparent KD of MS2 coat protein [2]: 0.0131 µM

Sequence: ACUCACUCGCGAGGAUAUGGACAAAUAUAAACGCUAGAAGGCGCGACAUGAGGAUCACCCAUGUACUCACUCACUCACUCACAU [my 1st design ever] (Eterna round: R96, puzzle: Exclusion NG 1)
- apparent KD of MS2 coat protein (input ligand: FMN 200 uM): 0.0626 µM
- apparent KD of MS2 coat protein [1]: 0.0275 µM
- apparent KD of MS2 coat protein (input ligand: none): 0.0419 µM

Sequence: GAAUGAGAGCAGGAUAUCUUAUAAAUGUAUGAAAGAGAAGGGCUCACAUGAGGAUCACCCAUGUGGUCCUAAAU [jl-ex6-4.74 jandersonlee mod] (Eterna round: R97, puzzle: Exclusion 6)
- apparent KD of MS2 coat protein (input ligand: FMN 200 uM): 0.286 µM
- apparent KD of MS2 coat protein (input ligand: none): 0.0445 µM

Sequence: CCGACUCAAGGAUAUUGUACUGCUGACAUGAGGAUCACCCAUGUAUGUUAACUCGGCCGACGAGAAGGUGACGACA [BotMod 1 - Jieux - Exclusion 5] (Eterna round: R97, puzzle: Exclusion 5)
- apparent KD of MS2 coat protein (input ligand: FMN 200 uM): 0.0396 µM
- apparent KD of MS2 coat protein (input ligand: none): 0.0431 µM

Sequence: CAGGGCAUAGGAUAUGCGGGUAAACACCAUGCAUUAGAAUGACAUGAGGAUCACCCAUGUAGAAGGAUGAUAGC [Eternabot (L1) Solution 98] (Eterna round: R97, puzzle: Exclusion 2)
- apparent KD of MS2 coat protein (input ligand: FMN 200 uM): 0.0283 µM
- apparent KD of MS2 coat protein (input ligand: none): 0.0292 µM

Sequence: CAGUACUGAGGAUAUACAUGAGGAUCACCCAUGUGCUCAAAGUAGGAUACUACUAUUAGUAGAAGGCAGUACUG [Fiskers Ex 3 828 mod 21] (puzzle: Exclusion 3)
- apparent KD of MS2 coat protein [2]: 0.0235 µM

Sequence: UUUCAACGGUAGGAUAUCGAGACUACGACUAGCCGAGAAGGGCCGACAUGAGGAUCACCCAUGUGCCUCACCCG [Eternabot (L1) Solution 56] (Eterna round: R97, puzzle: Exclusion 6)
- apparent KD of MS2 coat protein (input ligand: FMN 200 uM): 0.0229 µM
- apparent KD of MS2 coat protein (input ligand: none): 0.0239 µM
